From patent US20240383994A1

Columns and labels:
[1] = target: human CD40 (hCD40), full length, on cells (human) (UniProt P25942); test: cell-based or functional assay
[2] = target: cynoCD40-mFc (monkey (cyno)); test: flow cytometry, blocking of cynoCD40-mFc (2 µg/mL) binding to CHO-K1-cynoCD40L cells
Sequence of cynoCD40-mFc (monkey (cyno)) (chain, as listed by the source limits assumed, form in doubt): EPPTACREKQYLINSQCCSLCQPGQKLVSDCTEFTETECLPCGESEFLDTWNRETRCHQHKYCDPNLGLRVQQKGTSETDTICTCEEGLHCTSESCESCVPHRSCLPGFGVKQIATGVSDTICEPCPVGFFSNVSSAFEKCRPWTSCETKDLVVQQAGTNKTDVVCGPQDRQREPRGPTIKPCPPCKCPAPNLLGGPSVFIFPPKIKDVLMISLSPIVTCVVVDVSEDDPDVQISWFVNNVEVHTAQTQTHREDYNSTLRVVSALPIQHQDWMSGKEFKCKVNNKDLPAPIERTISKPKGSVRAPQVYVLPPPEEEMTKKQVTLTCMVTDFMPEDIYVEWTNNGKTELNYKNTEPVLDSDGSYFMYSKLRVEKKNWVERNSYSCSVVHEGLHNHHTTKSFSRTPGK

Sequence of human CD40 (hCD40), full length, on cells (human) (P25942 21-277 limits assumed): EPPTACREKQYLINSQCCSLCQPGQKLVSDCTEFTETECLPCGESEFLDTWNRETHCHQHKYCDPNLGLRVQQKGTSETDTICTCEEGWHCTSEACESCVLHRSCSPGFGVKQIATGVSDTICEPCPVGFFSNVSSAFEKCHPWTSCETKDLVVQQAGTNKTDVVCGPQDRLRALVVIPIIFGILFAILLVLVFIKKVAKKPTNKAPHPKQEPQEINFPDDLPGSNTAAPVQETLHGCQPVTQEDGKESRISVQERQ

Inhibition, % of Ramos cell apoptosis at 0.064 ng/L (so in the source) [1]	Inhibition, % of Ramos cell apoptosis at 0.32 ng/L (so in the source) [1]	Inhibition, % of Ramos cell apoptosis at 1.6 ng/L (so in the source) [1]	Inhibition, % of Ramos cell apoptosis at 8 ng/L (so in the source) [1]	Inhibition, % of Ramos cell apoptosis at 40 ng/L (so in the source) [1]	Inhibition, % of Ramos cell apoptosis at 200 ng/L (so in the source) [1]	Inhibition, % of Ramos cell apoptosis at 1000 ng/L (so in the source) [1]	IC50 [2]	Substance
-12%	-9%	-10%	0%	-20%	-6%	-3%		IgG4 isotype control antibody
							24.1 nM	Iscalimab (CFZ533) (antibody)
